Experimental data reported in patent JP2002506420A.

Tests used:
[1] = target: ヒトCD3抗原 (human CD3 antigen on the surface of human T cells) (human) (UniProt P07766); test: competition with 125I-labelled mouse M291 on IL-2-activated human T cells; affinity by the method of Berzofsky and Berkower
[2] = target: FcRII (Fc gamma receptor II on K562 cells) (UniProt P12318); test: cell-based or functional assay
UniProt P12318, sequence (P12318 34-317): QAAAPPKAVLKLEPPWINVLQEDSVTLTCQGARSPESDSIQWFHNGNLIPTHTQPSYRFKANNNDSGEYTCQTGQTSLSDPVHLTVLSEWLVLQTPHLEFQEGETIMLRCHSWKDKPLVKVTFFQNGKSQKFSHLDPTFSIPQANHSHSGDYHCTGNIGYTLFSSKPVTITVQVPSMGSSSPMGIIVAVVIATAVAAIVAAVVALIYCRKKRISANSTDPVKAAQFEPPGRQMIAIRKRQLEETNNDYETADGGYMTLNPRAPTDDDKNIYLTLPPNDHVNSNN

UniProt P07766, sequence (P07766 23-207): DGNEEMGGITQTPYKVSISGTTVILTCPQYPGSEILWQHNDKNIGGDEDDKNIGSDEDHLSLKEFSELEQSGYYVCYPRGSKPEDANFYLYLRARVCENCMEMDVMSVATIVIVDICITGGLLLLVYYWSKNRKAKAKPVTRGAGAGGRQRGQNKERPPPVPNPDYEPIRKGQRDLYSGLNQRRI

**Q.** For “ヒト化M291 IgG1 (humanized M291, human IgG1) (from UniProt P01857 1-330) (antibody)”, which Ka [1] is on record?
**A.** The Ka was 1.6e+09 M⁻¹.

**Q.** With “キメラOKT3 IgG2 (chimeric OKT3, wild-type human IgG2) (from UniProt P01859 1-326) (antibody)” as the substance, how does the K562細胞の特異的溶解 (reverse lysis, 51Cr release) [2] read?
**A.** The K562細胞の特異的溶解 (reverse lysis, 51Cr release) was under 32%.
